Blank lines part the entries; values can stand above or below the binder they belong to.
Experiments:
[1] = target: recombinant BCMA (R&D Systems, catalog no. 193-BC) (human) (UniProt Q02223); assay: competitive ELISA, plate-bound BCMA; Ab 200.000 ng/mL; competitor APRIL 62.50 ng/mL
[2] = target: BCMA on BCMA-expressing cells (H929 / NCI-H929, MM1.S, U266, Daudi) (human) (UniProt Q02223); assay: flow cytometry on H929 cells; antibody 0.781 ng/ml
[3] = target: recombinant BCMA (R&D Systems, catalog no. 193-BC) (human) (UniProt Q02223); assay: competitive ELISA, plate-bound BCMA; Ab 2.000 ng/mL; competitor APRIL 500.00 ng/mL
[4] = target: recombinant BCMA (R&D Systems, catalog no. 193-BC) (human) (UniProt Q02223); assay: competitive ELISA, plate-bound BCMA; Ab 0.200 ng/mL; competitor APRIL 500.00 ng/mL
[5] = target: BCMA on BCMA-expressing cells (H929 / NCI-H929, MM1.S, U266, Daudi) (human) (UniProt Q02223); assay: flow cytometry on MM1.S cells; antibody 0000 ng/ml (background)
[6] = target: BCMA on BCMA-expressing cells (H929 / NCI-H929, MM1.S, U266, Daudi) (human) (UniProt Q02223); assay: flow cytometry on MM1.S cells; antibody 0.098 ng/ml
[7] = target: recombinant BCMA (R&D Systems, catalog no. 193-BC) (human) (UniProt Q02223); assay: competitive ELISA, plate-bound BCMA; Ab 200.000 ng/mL; competitor APRIL 250.00 ng/mL
[8] = target: recombinant BCMA (R&D Systems, catalog no. 193-BC) (human) (UniProt Q02223); assay: competitive ELISA, plate-bound BCMA; Ab 0.002 ng/mL; competitor APRIL 15.63 ng/mL
[9] = target: recombinant BCMA (R&D Systems, catalog no. 193-BC) (human) (UniProt Q02223); assay: competitive ELISA, plate-bound BCMA; Ab 20.000 ng/mL; competitor APRIL 250.00 ng/mL
[10] = target: BCMA on BCMA-expressing cells (H929 / NCI-H929, MM1.S, U266, Daudi) (human) (UniProt Q02223); assay: flow cytometry on MM1.S cells; antibody 25.000 ng/ml
[11] = target: recombinant BCMA (R&D Systems, catalog no. 193-BC) (human) (UniProt Q02223); assay: competitive ELISA, plate-bound BCMA; Ab 0.020 ng/mL; competitor APRIL 62.50 ng/mL
[12] = target: recombinant BCMA (R&D Systems, catalog no. 193-BC) (human) (UniProt Q02223); assay: competitive ELISA, plate-bound BCMA; Ab 200.000 ng/mL; competitor APRIL 7.81 ng/mL
[13] = target: BCMA on BCMA-expressing cells (H929 / NCI-H929, MM1.S, U266, Daudi) (human) (UniProt Q02223); assay: flow cytometry on MM1.S cells; antibody 0.195 ng/ml
[14] = target: recombinant BCMA (R&D Systems, catalog no. 193-BC) (human) (UniProt Q02223); assay: competitive ELISA, plate-bound BCMA; Ab 0.020 ng/mL; competitor APRIL 500.00 ng/mL
[15] = target: recombinant BCMA (R&D Systems, catalog no. 193-BC) (human) (UniProt Q02223); assay: competitive ELISA, plate-bound BCMA; Ab 20.000 ng/mL; competitor APRIL 31.25 ng/mL
[16] = target: BCMA on BCMA-expressing cells (H929 / NCI-H929, MM1.S, U266, Daudi) (human) (UniProt Q02223); assay: flow cytometry on H929 cells; antibody 1.560 ng/ml
[17] = target: recombinant BCMA (R&D Systems, catalog no. 193-BC) (human) (UniProt Q02223); assay: competitive ELISA, plate-bound BCMA; Ab 0.020 ng/mL; competitor APRIL 15.63 ng/mL
[18] = target: recombinant BCMA (R&D Systems, catalog no. 193-BC) (human) (UniProt Q02223); assay: competitive ELISA, plate-bound BCMA; Ab 0.020 ng/mL; competitor APRIL 125.00 ng/mL
[19] = target: recombinant BCMA (R&D Systems, catalog no. 193-BC) (human) (UniProt Q02223); assay: competitive ELISA, plate-bound BCMA; Ab 0.200 ng/mL; competitor APRIL 7.81 ng/mL
[20] = target: recombinant BCMA (R&D Systems, catalog no. 193-BC) (human) (UniProt Q02223); assay: competitive ELISA, plate-bound BCMA; Ab 0.020 ng/mL; competitor APRIL 250.00 ng/mL
[21] = target: recombinant BCMA (R&D Systems, catalog no. 193-BC) (human) (UniProt Q02223); assay: competitive ELISA, plate-bound BCMA; Ab 20.000 ng/mL; competitor APRIL 15.63 ng/mL
[22] = target: recombinant BCMA (R&D Systems, catalog no. 193-BC) (human) (UniProt Q02223); assay: competitive ELISA, plate-bound BCMA; Ab 0.002 ng/mL; competitor APRIL 62.50 ng/mL
[23] = target: BCMA on BCMA-expressing cells (H929 / NCI-H929, MM1.S, U266, Daudi) (human) (UniProt Q02223); assay: flow cytometry on H929 cells; antibody 0.000 ng/ml (background)
[24] = target: BCMA on BCMA-expressing cells (H929 / NCI-H929, MM1.S, U266, Daudi) (human) (UniProt Q02223); assay: flow cytometry on H929 cells; antibody 100.000 ng/ml
[25] = target: recombinant BCMA (R&D Systems, catalog no. 193-BC) (human) (UniProt Q02223); assay: competitive ELISA, plate-bound BCMA; Ab 2.000 ng/mL; competitor APRIL 0.00 ng/mL
[26] = target: recombinant BCMA (R&D Systems, catalog no. 193-BC) (human) (UniProt Q02223); assay: competitive ELISA, plate-bound BCMA; Ab 200.000 ng/mL; competitor APRIL 125.00 ng/mL

Chain of recombinant BCMA (R&D Systems, catalog no. 193-BC) (human) (Q02223 5-51 limits assumed): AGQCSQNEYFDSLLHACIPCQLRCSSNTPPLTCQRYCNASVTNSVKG
Chain of BCMA on BCMA-expressing cells (H929 / NCI-H929, MM1.S, U266, Daudi) (human) (Q02223 whole entry): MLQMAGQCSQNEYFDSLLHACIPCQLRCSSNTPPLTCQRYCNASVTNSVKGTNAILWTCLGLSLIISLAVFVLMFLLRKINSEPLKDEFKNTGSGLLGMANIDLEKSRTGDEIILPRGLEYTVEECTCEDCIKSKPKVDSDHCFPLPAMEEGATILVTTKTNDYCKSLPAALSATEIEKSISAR

- A450-A570 [1]: 2.44
- MFI [2]: 5020
- A450-A570 [3]: 0.0732
- A450-A570 [4]: 0.0603
- MFI [5]: 2990
- MFI [6]: 1960
- A450-A570 [7]: 2.21
- A450-A570 [8]: 0.062
- A450-A570 [9]: 0.413
- MFI [10]: 2340
- A450-A570 [11]: 0.0577
- A450-A570 [12]: 2.47
- MFI [13]: 2010
- A450-A570 [14]: 0.0631
- A450-A570 [15]: 0.828
- MFI [16]: 5060
- A450-A570 [17]: 0.0584
- A450-A570 [18]: 0.0557
- A450-A570 [19]: 0.0577
- A450-A570 [20]: 0.0618
- A450-A570 [21]: 0.778
- A450-A570 [22]: 0.0569
- MFI [23]: 5000
- MFI [24]: 20900
- A450-A570 [25]: 0.107
- A450-A570 [26]: 2.3
B1: AntiX**BCMA_F7E_F7E (bispecific antibody, part only; not given: other chains of three-chain format, not shown: another chain or arm of the molecule)
tandem VH: QVQLVESGGGLVQPGGSLRLSCVASGFTFSSNAMSWVRQAPGKGLEWVSAISGSGDYTHYSDSVKGRFTISRDNSKNTLYLQMNSLRAEDTAVYYCAKEVPGGPLVDFDSRGQGTLVTVSSGGGGSGGGGSQVQLVESGGGLVQPGGSLRLSCVASGFTFSSNAMSWVRQAPGKGLEWVSAISGSGDYTHYSDSVKGRFTISRDNSKNTLYLQMNSLRAEDTAVYYCAKEVPGGPLVDFDSRGQGTLVTVSS

- A450-A570 [1]: 2.07
- MFI [2]: 5060
- A450-A570 [3]: 0.0711
- A450-A570 [4]: 0.0745
- MFI [5]: 2990
- MFI [6]: 2040
- A450-A570 [7]: 0.969
- A450-A570 [8]: 0.0607
- A450-A570 [9]: 0.148
- MFI [10]: 2130
- A450-A570 [11]: 0.0629
- A450-A570 [12]: 2.51
- MFI [13]: 2070
- A450-A570 [14]: 0.0835
- A450-A570 [15]: 0.418
- MFI [16]: 5100
- A450-A570 [17]: 0.0614
- A450-A570 [18]: 0.064
- A450-A570 [19]: 0.0643
- A450-A570 [20]: 0.0617
- A450-A570 [21]: 0.482
- A450-A570 [22]: 0.067
- MFI [23]: 5000
- MFI [24]: 7560
- A450-A570 [25]: 0.0894
- A450-A570 [26]: 1.37
B2: anti-BCMA heavy chain-only antibody (UniAb) with the VH of SEQ ID NO: 12 (antibody, V domains shown)
VH: QVQLVESGGGLVQPGGSLRLSCVASGFTFSSNAMSWVRQAPGKGLEWVSAISGSGDYTHYSDSVKGRFTISRDNSKNTLYLQMNSLRAEDTAVYYCAKEVPGGPLVDFDSRGQGTLVTVSS
notes: Heavy chain-only antibody from UniRat; also called Clone ID No: 316302
